How the values were obtained:
[1] = tested on: Cas10-Csm K524E (Staphylococcus epidermidis); assay: fluorescence polarization; settings: no Mg2+, 1 mM EDTA, Kd only in Fig 8B, 50 mM Tris-HCl pH 8.0, 400 mM NH4Cl, 5% v/v glycerol, 0.025% w/v BSA, 10 nM RNA, 2 h at room temperature
[2] = tested on: Cas10-Csm R754E (Staphylococcus epidermidis); assay: fluorescence polarization; settings: no Mg2+, 1 mM EDTA, Kd only in Fig 8B, 50 mM Tris-HCl pH 8.0, 400 mM NH4Cl, 5% v/v glycerol, 0.025% w/v BSA, 10 nM RNA, 2 h at room temperature

Row | Sequence | binding signal (fold Kd vs same mutant on cognate) [1] | binding signal (fold Kd vs same mutant on cognate) [2] | binding signal (fold Kd vs wild type on cognate) [1] | binding signal (fold Kd vs wild type on cognate) [2]
1 | CUUUGUACUGAUGAUUUAUAUACAAGCCGAUACGUUCUCUAAA [pmRNA01-FMM2 (Nes target, segment 2 mismatch)] | 2.7 | 1.6 | – | –
2 | CUUUGUACUGAUGAUUUAUAUACUUCGGCAUACGUUCUCUAAA [pmRNA01-F (Nes cognate target)] | – | – | 1.8 | 2.8
